Test results: patent publication US20240101959A1, “USE OF IL-2R-BETA-GAMMA AGONIST PEPTIDES IN CELL MANUFACTURING” (MEDIKINE, INC., priority 2022, published 2024)
Positions of bridges follow the written chain, without caps; N, C: chain ends. No end group written: not given here.

target: T1, hu-IL-2Rβ subunit (human, UniProt P14784 27-240, limits assumed); assay: phage ELISA competition assay
T1 construct: also called human interleukin-2 receptor subunit β; CD122
T1 sequence (looked up): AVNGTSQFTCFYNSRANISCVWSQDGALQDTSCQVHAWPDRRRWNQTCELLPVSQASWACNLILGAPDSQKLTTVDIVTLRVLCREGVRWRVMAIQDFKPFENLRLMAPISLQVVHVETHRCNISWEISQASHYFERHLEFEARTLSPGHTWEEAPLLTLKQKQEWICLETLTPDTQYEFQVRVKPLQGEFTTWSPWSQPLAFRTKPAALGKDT

YPCWMAQLGELCDL [SEQ ID NO 621] and KSGWYPCWMAKLGELCDLEAQP [SEQ ID NO 161] cannot be ordered by IC50: under 10 µM for the first, under 100 µM for the second.

FYPCWMANLGELCDLDFLRELN [SEQ ID NO 122] and RGMCYPCWFARLGELCDLECDQ [SEQ ID NO 159] cannot be ordered by IC50: under 100 µM for the first, under 100 µM for the second.

WYPCWMAQLGELCDLDAGARHL [SEQ ID NO 160] and WLPCWMAQLGDLCDLEQYVPLP [SEQ ID NO 164] cannot be ordered by IC50: under 100 µM for the first, under 100 µM for the second.

KMHKAVWLPCWMAQVGELCDLE [SEQ ID NO 132] and WFPCWMAQLGEVCDLD [SEQ ID NO 179] cannot be ordered by IC50: under 100 µM for the first, under 100 µM for the second.

WWPCWMAQLGDLCDLEETSGGT [SEQ ID NO 156] and WYPCWMAQPGELCDVD [SEQ ID NO 146] cannot be ordered by IC50: under 100 µM for the first, under 100 µM for the second.

RVTWYPCWMAQLGELCDLEESV [SEQ ID NO 163] and GTTWYPCWLAQLGELCDLDVLE [SEQ ID NO 155] cannot be ordered by IC50: under 100 µM for the first, under 100 µM for the second.

IGSWWPCWMAQLGELCDLEPEL [SEQ ID NO 154] and QDEAVEWFPCWMARLGELCDLE [SEQ ID NO 84] cannot be ordered by IC50: under 100 µM for the first, under 100 µM for the second.

GPRFYPCWIAQLGELCDLEDMG [SEQ ID NO 162] and YYPCWMAQLGELCDLE [SEQ ID NO 129] cannot be ordered by IC50: under 100 µM for the first, under 100 µM for the second.

KSNFFPCWIAQLGQLCDLEPET [SEQ ID NO 121] and VRPMGVWYPCWIAQLGELCDLV [SEQ ID NO 149] cannot be ordered by IC50: under 100 µM for the first, under 100 µM for the second.

KLQSWRWYPCWMAQLGELCDLD [SEQ ID NO 135] and RDESAGYYPCWIAQLGELCDLE [SEQ ID NO 141] cannot be ordered by IC50: under 100 µM for the first, under 100 µM for the second.

WYPCWMANLGELCDLEAERSPV [SEQ ID NO 168] and NNSREGWFPCWLAKLGDLCDLD [SEQ ID NO 128] cannot be ordered by IC50: under 100 µM for the first, under 100 µM for the second.

AKGWDTWKPCWLANLGELCDLE [SEQ ID NO 140] and SGHCYPCWLAGLGELCDLNCG [SEQ ID NO 172] cannot be ordered by IC50: under 100 µM for the first, under 100 µM for the second.

SWHAETWYPCWLAQVGELCDLD [SEQ ID NO 131] and RQAWYPCWMAQLGELCDLEAEL [SEQ ID NO 126] cannot be ordered by IC50: under 100 µM for the first, under 100 µM for the second.

QGPVRLWYPCWMAQLGELCDLD [SEQ ID NO 145] and WYPCWRAQLGELCDLDPPIAVE [SEQ ID NO 167] cannot be ordered by IC50: under 100 µM for the first, under 100 µM for the second.

WYPCHMAKLRELCDLD [SEQ ID NO 180] and VPRWYPCWIAQLGELCDLDSDD [SEQ ID NO 150] cannot be ordered by IC50: under 100 µM for the first, under 100 µM for the second.

SVVVNNWLPCWMAQLGELCDLD [SEQ ID NO 86] and GEAWYPCWLARLGELCDMDPRV [SEQ ID NO 152] cannot be ordered by IC50: under 100 µM for the first, under 100 µM for the second.

WYPCWMANLGELCDLEYPSWAQ [SEQ ID NO 158] and WYPCWMAQLGELCDLDESTRLT (disulfide 4-13 (inferred)) [SEQ ID NO 153] cannot be ordered by IC50: under 100 µM for the first, under 100 µM for the second.

NGAWYPCWMAQVGELCDLEERW [SEQ ID NO 124] and YYPCWMARLGELCDLD [SEQ ID NO 85] cannot be ordered by IC50: under 100 µM for the first, under 100 µM for the second.

WYPCWMAQLGELCDLGPTESNL [SEQ ID NO 157] and YRGWLPCWRAKLGDLCDLGQPM (disulfide 7-16 (inferred)) [SEQ ID NO 151] cannot be ordered by IC50: under 100 µM for the first, under 100 µM for the second.

NEPEGGFYPCWLAQLGELCDLH (disulfide 10-19 (inferred)) [SEQ ID NO 136] and VRAWYPCWIARLGELCDLEVD [SEQ ID NO 178] cannot be ordered by IC50: under 100 µM for the first, under 100 µM for the second.

YLPCWMAHLGELCDLDSPLKAR [SEQ ID NO 165] and WQREWRWFPCWMAKLGDMCDLD [SEQ ID NO 83] cannot be ordered by IC50: under 100 µM for the first, under 100 µM for the second.

YPCHMAQLGELCDLWSWGDI (not fully specified (bridges); cysteine pairing not given here) [SEQ ID NO 620] and WYPCWMAQLGELCDLDDHWPAM [SEQ ID NO 166] cannot be ordered by IC50: under 10 µM for the first, under 100 µM for the second.

HASWLPCWLAQLGELCDLEPNP [SEQ ID NO 123] and WYPCWIARLGELCDLETSGGFP [SEQ ID NO 171] cannot be ordered by IC50: under 100 µM for the first, under 100 µM for the second.

VQYKKCWMAQLGDLCELDPS (not fully specified (bridges); cysteine pairing not given here) [SEQ ID NO 619] and RDQYYPCWMAQLGELCDLDEVF [SEQ ID NO 169] cannot be ordered by IC50: under 10 µM for the first, under 100 µM for the second.
